Test results: US20250276081A1, “Mucin-Active Proteases and Methods of Use” (priority 2022, published 2025)

How the values were obtained:
mucin-1 (MUC1) (human) = mucin-1 (MUC1) (human) (UniProt P15941)
CD29 (human) = CD29 (human) (UniProt P05556)
[1] = biological target: human epidermal growth factor receptor 2 (HER2) (human) (UniProt P04626)
CD46 (human) = CD46 (human) (UniProt P15529)
[2] = biological target: CD43 (sialophorin) (human) (UniProt P16150)
CD98 (human) = CD98 (human) (UniProt P08195)
CD30 (human) = CD30 (human) (UniProt P28908)
[3] = biological target: Annexin A1 (ANXA1) (human) (UniProt P04083)
OVCAR-3 cells = assay: Bioactive compound library screen and STACK cell death analysis ± StcE; assay type: cell-based
Protocol: Bioactive compound library screen. A library of 261 bioactive compounds (Selleck Chemicals) was stored at −80° C. The library was re-formatted from 96-well to 384-well format using a Versette automated liquid handler configured with a 96-channel pipetting head and diluted to 2 mM in DMSO. The day before the screen, 5×10^3 OVCAR-3^N cells/well were seeded into two 384-well plates in 45 μL of medium. The next day, the medium was removed and replaced with medium containing 20 nM Sytox Green and compounds from a freshly thawed library master stock plate (1 compound/well) were added to a final concentration of 500 nM. One plate was co-treated with vehicle (PBS) and the other with 50 nM StcE. Plates were imaged immediately and every 2 h thereafter for a total of 72 h using the Essen IncuCyte Zoom. Counts of Sytox Green and mKate^2 objects per mm^2 were obtained and the lethal fraction calculated as previously described^2. […] The Bliss Independence Model was used to compute expectant cell death of compound+ StcE treatment using normalized AUC (nAUC) values, and deviation from this expectation was used to infer modulation of cell death, as described previously^3.
Measuring cell death using STACK. Follow-up cell death experiments of OVCAR-3^N cells were performed using scalable time-lapse analysis of cell death kinetics (STACK) 2. […]

[4] = biological target: cell surface mucins on HeLa cells
CD236 (human) = CD236 (human) (UniProt P04921)
Sequence of CD236 (human) (P04921 whole entry): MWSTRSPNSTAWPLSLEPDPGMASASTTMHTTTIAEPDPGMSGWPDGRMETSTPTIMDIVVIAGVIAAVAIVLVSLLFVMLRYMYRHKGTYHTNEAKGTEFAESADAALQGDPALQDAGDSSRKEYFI

Sequence of CD30 (human) (P28908 19-595): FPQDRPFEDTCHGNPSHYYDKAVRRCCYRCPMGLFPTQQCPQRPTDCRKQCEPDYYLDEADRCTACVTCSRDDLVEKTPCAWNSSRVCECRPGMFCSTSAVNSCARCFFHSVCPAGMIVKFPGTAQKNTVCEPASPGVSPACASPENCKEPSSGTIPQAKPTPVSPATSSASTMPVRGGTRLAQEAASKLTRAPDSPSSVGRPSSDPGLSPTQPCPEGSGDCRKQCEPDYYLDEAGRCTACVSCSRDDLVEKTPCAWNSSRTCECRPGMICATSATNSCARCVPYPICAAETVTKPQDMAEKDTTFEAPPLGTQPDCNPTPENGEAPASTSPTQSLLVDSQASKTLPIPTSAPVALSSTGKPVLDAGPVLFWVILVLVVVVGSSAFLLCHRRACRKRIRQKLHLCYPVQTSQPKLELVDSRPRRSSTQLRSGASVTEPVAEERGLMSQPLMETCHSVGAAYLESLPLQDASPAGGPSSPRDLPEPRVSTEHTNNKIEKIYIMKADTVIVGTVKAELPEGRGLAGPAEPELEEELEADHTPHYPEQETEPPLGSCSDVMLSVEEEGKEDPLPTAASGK
Sequence of mucin-1 (MUC1) (human) (P15941 24-1255): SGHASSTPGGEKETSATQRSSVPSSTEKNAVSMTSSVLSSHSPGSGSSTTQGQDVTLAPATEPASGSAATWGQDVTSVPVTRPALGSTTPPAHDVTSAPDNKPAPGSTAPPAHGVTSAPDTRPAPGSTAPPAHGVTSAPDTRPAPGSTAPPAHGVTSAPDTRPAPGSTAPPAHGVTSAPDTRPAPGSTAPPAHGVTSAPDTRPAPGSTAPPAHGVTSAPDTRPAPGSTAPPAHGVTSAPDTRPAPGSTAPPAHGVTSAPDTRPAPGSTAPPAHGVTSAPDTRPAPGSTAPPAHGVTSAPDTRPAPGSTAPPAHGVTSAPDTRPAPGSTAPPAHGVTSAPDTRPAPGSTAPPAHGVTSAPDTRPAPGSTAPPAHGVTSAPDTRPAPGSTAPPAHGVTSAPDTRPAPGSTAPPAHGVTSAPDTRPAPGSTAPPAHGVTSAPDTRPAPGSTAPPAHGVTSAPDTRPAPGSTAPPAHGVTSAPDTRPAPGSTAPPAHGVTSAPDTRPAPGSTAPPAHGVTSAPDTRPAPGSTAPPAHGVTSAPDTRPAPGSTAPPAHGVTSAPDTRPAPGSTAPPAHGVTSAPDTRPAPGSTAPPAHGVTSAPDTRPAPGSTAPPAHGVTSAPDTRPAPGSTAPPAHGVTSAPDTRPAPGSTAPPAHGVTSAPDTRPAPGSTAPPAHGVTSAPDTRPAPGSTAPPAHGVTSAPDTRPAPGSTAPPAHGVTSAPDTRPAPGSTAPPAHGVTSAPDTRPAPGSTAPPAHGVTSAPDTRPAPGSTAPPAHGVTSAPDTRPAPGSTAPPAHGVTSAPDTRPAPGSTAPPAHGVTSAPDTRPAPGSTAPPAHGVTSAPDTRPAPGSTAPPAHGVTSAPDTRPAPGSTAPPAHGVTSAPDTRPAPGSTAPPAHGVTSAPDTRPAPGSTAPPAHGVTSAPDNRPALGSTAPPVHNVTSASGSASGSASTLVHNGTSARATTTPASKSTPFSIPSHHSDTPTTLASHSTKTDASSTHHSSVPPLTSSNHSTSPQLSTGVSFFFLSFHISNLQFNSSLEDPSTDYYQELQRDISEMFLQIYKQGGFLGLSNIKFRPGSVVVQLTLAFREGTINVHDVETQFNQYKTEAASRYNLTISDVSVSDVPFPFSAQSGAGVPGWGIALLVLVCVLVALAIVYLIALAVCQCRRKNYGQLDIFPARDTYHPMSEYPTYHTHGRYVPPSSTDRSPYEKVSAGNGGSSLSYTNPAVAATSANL
Sequence of CD29 (human) (P05556 21-798): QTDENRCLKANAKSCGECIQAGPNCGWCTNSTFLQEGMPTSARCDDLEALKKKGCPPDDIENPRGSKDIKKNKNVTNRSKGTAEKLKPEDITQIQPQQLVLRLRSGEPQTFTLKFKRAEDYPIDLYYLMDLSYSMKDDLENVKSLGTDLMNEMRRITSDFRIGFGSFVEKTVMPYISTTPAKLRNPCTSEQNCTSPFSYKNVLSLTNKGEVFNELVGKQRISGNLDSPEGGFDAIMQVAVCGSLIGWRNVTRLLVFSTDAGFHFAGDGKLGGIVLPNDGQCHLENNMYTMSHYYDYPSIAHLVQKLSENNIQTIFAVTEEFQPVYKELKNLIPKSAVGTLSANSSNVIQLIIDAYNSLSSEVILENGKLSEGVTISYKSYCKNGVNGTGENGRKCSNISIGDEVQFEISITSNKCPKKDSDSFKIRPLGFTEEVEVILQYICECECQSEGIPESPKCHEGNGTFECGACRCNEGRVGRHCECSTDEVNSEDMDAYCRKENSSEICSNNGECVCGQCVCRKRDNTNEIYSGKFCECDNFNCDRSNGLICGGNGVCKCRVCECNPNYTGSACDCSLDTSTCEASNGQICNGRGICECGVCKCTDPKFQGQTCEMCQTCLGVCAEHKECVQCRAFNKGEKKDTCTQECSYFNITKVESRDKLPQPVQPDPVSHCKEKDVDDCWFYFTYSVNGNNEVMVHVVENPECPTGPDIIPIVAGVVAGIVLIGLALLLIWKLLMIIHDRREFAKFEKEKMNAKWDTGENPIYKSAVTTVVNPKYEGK
Sequence of CD98 (human) (P08195 103-630): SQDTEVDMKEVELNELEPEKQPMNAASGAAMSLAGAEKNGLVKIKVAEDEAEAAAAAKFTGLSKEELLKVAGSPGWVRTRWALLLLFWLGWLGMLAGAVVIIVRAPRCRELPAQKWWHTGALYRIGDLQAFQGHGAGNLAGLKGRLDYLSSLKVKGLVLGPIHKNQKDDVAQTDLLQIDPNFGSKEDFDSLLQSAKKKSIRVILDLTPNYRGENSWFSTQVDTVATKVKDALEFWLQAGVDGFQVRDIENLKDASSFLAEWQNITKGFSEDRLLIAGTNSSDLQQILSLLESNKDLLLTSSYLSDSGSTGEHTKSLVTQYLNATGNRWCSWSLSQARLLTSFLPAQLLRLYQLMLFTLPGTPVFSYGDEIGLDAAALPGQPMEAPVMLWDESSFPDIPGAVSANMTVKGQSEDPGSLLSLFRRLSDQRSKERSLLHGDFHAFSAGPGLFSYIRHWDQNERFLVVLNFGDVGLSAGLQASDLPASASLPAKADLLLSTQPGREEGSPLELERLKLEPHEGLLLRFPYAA
Sequence of Annexin A1 (ANXA1) (human) (P04083 2-346): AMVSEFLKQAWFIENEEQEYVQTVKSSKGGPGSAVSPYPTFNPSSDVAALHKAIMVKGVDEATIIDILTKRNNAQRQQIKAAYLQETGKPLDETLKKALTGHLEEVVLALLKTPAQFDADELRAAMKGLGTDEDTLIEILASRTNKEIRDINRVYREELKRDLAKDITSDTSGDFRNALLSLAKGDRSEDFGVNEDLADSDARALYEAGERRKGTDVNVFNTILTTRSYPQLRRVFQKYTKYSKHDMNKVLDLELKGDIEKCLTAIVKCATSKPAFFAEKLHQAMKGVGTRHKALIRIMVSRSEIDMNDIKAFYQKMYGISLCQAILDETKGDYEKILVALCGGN
Sequence of CD46 (human) (P15529 35-392): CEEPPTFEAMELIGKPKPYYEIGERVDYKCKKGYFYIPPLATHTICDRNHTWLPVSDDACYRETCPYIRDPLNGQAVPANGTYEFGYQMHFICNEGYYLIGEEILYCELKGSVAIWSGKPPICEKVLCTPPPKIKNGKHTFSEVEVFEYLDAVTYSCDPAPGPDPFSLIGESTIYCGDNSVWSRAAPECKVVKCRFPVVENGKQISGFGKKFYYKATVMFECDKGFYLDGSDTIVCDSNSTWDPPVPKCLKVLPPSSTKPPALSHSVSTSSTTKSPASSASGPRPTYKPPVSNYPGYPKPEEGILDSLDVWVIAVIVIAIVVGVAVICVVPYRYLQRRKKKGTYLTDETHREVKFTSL
Sequence of CD43 (sialophorin) (human) (P16150 20-400): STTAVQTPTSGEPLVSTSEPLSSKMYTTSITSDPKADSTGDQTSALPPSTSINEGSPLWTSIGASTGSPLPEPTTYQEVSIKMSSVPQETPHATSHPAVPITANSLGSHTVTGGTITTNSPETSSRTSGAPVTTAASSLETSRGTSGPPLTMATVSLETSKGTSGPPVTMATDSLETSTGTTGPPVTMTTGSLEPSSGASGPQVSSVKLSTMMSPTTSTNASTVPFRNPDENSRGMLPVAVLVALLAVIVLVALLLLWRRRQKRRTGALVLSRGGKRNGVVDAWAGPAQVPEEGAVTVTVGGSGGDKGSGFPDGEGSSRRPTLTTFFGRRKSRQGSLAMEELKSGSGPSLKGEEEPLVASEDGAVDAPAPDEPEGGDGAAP

Compound: Anti-MUC1/episialin antibody, clone 214D4 (EMD Millipore)
- Maximum MFI observed in binding assay (mucin-1 (MUC1) (human)): 328 AU

Compound: anti-CD29 antibody, clone P5D2 (BioLegend)
- Maximum MFI observed in binding assay (CD29 (human)): 23.7 AU

Compound: Mouse IgG1 anti-human CD340 (erbB2/HER-2) antibody, clone 24D2 (BioLegend)
- Maximum MFI observed in binding assay [1]: 311 AU

Compound: anti-CD46 antibody, clone TRA-2-10 (BioLegend)
- Maximum MFI observed in binding assay (CD46 (human)): 64.9 AU

Compound: anti-CD43 antibody, clone CD43-10G7 (BioLegend)
- Maximum MFI observed in binding assay [2]: 160 AU

Compound: anti-CD98 antibody, clone MEM-108 (BioLegend)
- Maximum MFI observed in binding assay (CD98 (human)): 234 AU

Compound: anti-CD30 antibody, clone BY88 (BioLegend)
- Maximum MFI observed in binding assay (CD30 (human)): 9.8 AU

Compound: Isotype control antibody, clone MOPC-21 (BioLegend)
- Maximum MFI observed in binding assay (K562^HER2 cell surface): 0.1 AU

Compound: anti-Annexin A1 antibody, clone 74/3 (BioLegend)
- Maximum MFI observed in binding assay [3]: 1.3 AU

Compound: COC(=O)c1ccc([C@@H]2c3[nH]c4ccccc4c3C[C@@H](C(=O)OC)N2C(=O)CCl)cc1 [RSL3]
- Enhancement of ferroptosis by StcE co-treatment (OVCAR-3 cells; dose response ± 50 nM StcE, OVCAR-3): no enhancement of ferroptosis

Compound: CCOC(=O)c1ccc(NC2CCCCC2)c(N)c1 [ferrostatin-1]
- Suppression of erastin2 + StcE induced ferroptosis (OVCAR-3 cells; 1 μM ferrostatin-1): fully suppressed

Compound: ddStcE^W366A (ΔC, ΔINS and W366A), engineered StcE (from UniProt O82882 36-803) (enzyme)
- Kd [4]: 2000 nM

Compound: anti-CD236 antibody, clone QA20A41 (BioLegend)
- Maximum MFI observed in binding assay (CD236 (human)): 188 AU
